Measurements published in the nanobody polyreactivity screen of Harvey et al. (2022).

Assay: yeast display, Sf9 membrane polyspecificity reagent, FACS + sequencing; frameworks hold sequencing errors
Method in brief: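 Polyreactivity labels are assigned by the sorting gate from which each nanobody was recovered. The gates were low and high (top ~1%), set on anti-HA fluorescence for expression and streptavidin fluorescence for reagent binding. Before sorting, galactose-induced (36–48 hours) yeast display cells were stained for 1 hour at 4 °C with 10% biotinylated, detergent-solubilized Sf9 membrane reagent.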

Row | Sequence | polyreactivity (PSR sort gate)
1 | QVQLVESGGRLVQAGGSLRLTCAASGSTIYQYVMRWYRQAPGKERELVAVITWSGGRTYYADSVKGRFTISRDNAKNTVYLQMNSLKPEDTAGYYCAADPLSGYDYWGQGTHVTVSS | low polyreactivity
2 | QVQLVESGGRLVQAGGSLSLSCAASGSIFYRNAMGWYSQAPAKEWEFVAVITSSGTSTYYADSVKGRFTISRDNEKNTVSFQMKSLKPEDTAVYYCAADESSPSRGDYWGQGTQVSVSS | low polyreactivity
3 | QVQLVESGGRLVQAGGTLRLSCAASGRIFGYNAMGWYRQAPGKERHLVAVITSGGSKNYADSVKGRFTISRDNAKHTVYLQMNSVKPEDTAVYYCPRRIWDRWSYPVRVRYYYWGQGTQVTGSS | high polyreactivity
4 | QVQLVESGGRLVQAGRSLRLSCAASGGTFQRYVMGWYRQAPGKERELVAAISRSGSTYADSVKGRFTISRDNAKNTGYLQMNSLKPEDTAVYYCNVVRYYRYYLHGYDYWGQGTQVTVSS | high polyreactivity
5 | QVQLVESGGRLVQAGRSLRLSCAASGINFYGYAMGWYRQAPGKERELVAAITSYDGSTYYADSVKGRFTISRDNAKNTVYLQMNSLKPEDTAVYYCAAYRYGSRGGYWGQGTQVTVSS | high polyreactivity
6 | QVQLVESGGRLVQPGGSLSLSCADSGNIFYWNTMGWYRQAPGKERELVATISWSGRTTYYADSVKGRFTISRDNEKNTVYLQMNSLKPEDTAVYYCAADVTSGVYSFSFDYLGQGTQVTVSS | low polyreactivity
7 | QVQLVESGGRVLQAGGSLRLSCAASGRIFSYNDMGWYRQAPGKERELVATITSGDSTISADSVKGRFTISRDNAKNTVYLQMNSLKPEDTAVYYCATDIYGLPVDYWGQGTQVTVSS | low polyreactivity
8 | QVQLVESGGSLVQAGGSLRLSCAASGRIFITNAMGAYRQAPGKERELVAAIRRRGGNTYYADSVKGRFTISRDNAKNTVYLQMNSLKPEDTAVYYCAVYPRPYKYNYWGQGTQVTVSS | high polyreactivity
9 | QVQLVESGGSLVQAGGSLRLSCDASGRTFGTNAMGWYRQAPRKETELVAAISWRGTSTYYADSVKGRFTNSRDNAKNTVYLQMNSLKPEDTAVYYCAARGYRADQWEYDYWGQGTQVTVSS | low polyreactivity
10 | QVQLVESGGSLVQAGGSLRLSCDASVLTFPVYAMGWYRQAPGKEREFVASISGRGASTYYADSVKGRFTISRDNAKNTVYLQMNSLIPEDTAVYYCNADVWLLSYFPEYDYWGQGNQVTVSS | low polyreactivity
11 | QVQLVESGGVIVQAGGSLRLSCAATGSNFWSYAMGSSRPAPGKERELVASITRSGGSTYYADSVKGRFTISRDNAKNTVYSQMNSLKPEDTAVYYCNARRTTRWGSSKYEYDYWGQGTQVTVSS | high polyreactivity
12 | QVQLVESGGVLDQAGGSLGLSCAASGRTLRKYAMGWYRQAPGKERELVAAITWTGGTTYYADSVKGRFTISRDNAKNTVYLQMNTLKPEDTAFYFCGTVRRYGYGYDYWGQGTQVTVSS | high polyreactivity
13 | QVQLVESGGVLVQAGGSLLLSCAASGFTFGCYGMGWYRQARGKERELGAAITKSGGRTYYADSVKGRFTISRDNAKNTVYLQMNSLLREDTAVYYCAASSQGDGGYWGQGSQVTVSS | high polyreactivity
14 | QVQLVESGGVLVQAGGSLRITCAASGHIFFYDTMGWYRQAPGKERELVAGITIGGSTNYADSVKGRFTISRDNAKNTVSLQMNSLKPEDTAVYFCNVVKYVYIYSYWEYYYWGQCTQVTVSS | low polyreactivity
15 | QVQLVESGGVLVQAGGSLRLICAASGSIFNRYAMGWYRHAPGKDRELVAAISRSGGRTYYADSVKGRFTISRDNAKNTVYLQMNSLKPEDTAVYYCAADKYYRQHEYDYWGQGTQVTVSS | high polyreactivity
16 | QVQLVESGGVLVQAGGSLRLICAASVFTFYSYAIGWYRQATGTERELVAGISRSGGSTYYADSVKGRFTISRDNAKNTVYLHMNRLKPEDTAVYYCNVRLRKKIQNSKYDYWGQGTQVSVSS | high polyreactivity
17 | QVQLVESGGVLVQAGGSLRLSCAASGFTFSLYGMGWYRQAPGKEREFVAAIRSGGSTNYADSVKGRFTISRDNAKNTVYLQMNRLKPEDTAVYYCATDIHSVHNNRDKHDYDYWGQGTQVTVSS | low polyreactivity
18 | QVQLVESGGVLVQAGGSLRLSCAASGGIFQGNVMGWYRQAPGKERELVASIRRGGSTNYADSVKGPFTISRDNAKNTVYLQMNSLKPEDTAVYYCNAAFYKEYYYWGQGTQVTVSS | low polyreactivity
19 | QVQLVESGGVLVQAGGSLRLSCAASGITLTANAMGWYRQAPGKERELVAAISRGGSKYYADSVKGRFTISRDNAKNPGYLQMNSLKPEDTAVYYCNKAGGYWYAKRDYDYWGQVTQVTVSS | high polyreactivity
20 | QVQLVESGGVLVQAGGSLRLSCAASGLDYYAIGWYRQAPGKERELVAAIDWSGVSTYYADSVKGRFTISRDNAKNTVYLQMNSLKPEDTAVDYCAALYYGWPRVSYGLGEYGYWGQGTQVTVSS | low polyreactivity
21 | QVQLVESGGVLVQAGGSLRLSCAASGNIFDQNAMGWYRQAPGKERELVAAITRSGSTTYYADSVKGRFTISRDNAKNTVYLQMNSLNPEDTAVYYCAAKVYAYRTYKMYYWGQGTQVTVSS | high polyreactivity
22 | QVQLVESGGVLVQAGGSLRLSCAASGRIFAYYTMGWYRQAPGKEREMVAAISLSGSSTYYADSVKGRFTISRDNAKNNVYLHMNSLKPEDTAVYYCNADSYAYYSWYDYWGQGTQVTVSS | low polyreactivity

Row | Sequence | polyreactivity (PSR sort gate)
23 | QVQLVESGGVLVQAGGSLRLSCAASGRIFDYYAMGWYRKAPGKERELVAAITSGGTTTYYADSVKGRFTISRDNAKNTVYLQMKSLKPEDTAVYYCAKYPYHIYHTEGDYWGQATQVTVSS | low polyreactivity
24 | QVQLVESGGVLVQAGGSLRLSCAASGRIFSIYGMGWYRQAPVKEREFVASITYSGGSTYNADSVKGRFTISRDTAKNTVYLQMKSLKPEDTAVYYCAKYVFSAYDYWGQGTQVTVSS | low polyreactivity
25 | QVQLVESGGVLVQAGGSLRLSCAASGRIFSNYAMGWYRQAPGKEWELVATIRKGGGSTYYADSVKGRFTISRDNAKNTVYLQMNSLKPEDTAVYYCAADGSLQTRRFDYWGQGTQVTVSS | high polyreactivity
26 | QVQLVESGGVLVQAGGSLRLSCAASGRIFSSNAMGWYRHAPGKESEFVADISWRTGSTYYADSVKGRFTISRDNAKNTVYLQMNSLKPEDTAVYYCKKRTGSYGYPYYYWGQGTQVTVSS | high polyreactivity
27 | QVQLVESGGVLVQAGGSLRLSCAASGRIFTRNAMGWYRQAPGKERELVASITRGGSTYYADSVKGRFTISRDNAKITVYLQMNCLKAEDTALYYCAAVFYDRGQRYNYWGQGTQVTVSS | high polyreactivity
28 | QVQLVESGGVLVQAGGSLRLSCAASGRTFGGNVMAWYRQAPGKERELVAAISYSGGSTHYADSVKGRFTNSRDNAKNTVYLQMNSLKPEDTAVYYCAKDGEVTGDYWGLGTQVTVSS | low polyreactivity
29 | QVQLVESGGVLVQAGGSLRLSCAASGRTFRYYAMGWYRQAPGKERELVAAITVTVTSTFYADSVKGRFTISRDNAKNTVYLQMNSLKPEDTAVYYCAKVDRQSPGQYYYWGQGTQVTVSS | low polyreactivity
30 | QVQLVESGGVLVQAGGSLRLSCAASGRTFWYNAMGWYRQAPGKEWELVAAISSTGGRTYYADSVKGRFTISRDNAKTTVYLQMNSLKPEDTAVYYCAARQLSSHYDYWGQGTQVTVSS | low polyreactivity
31 | QVQLVESGGVLVQAGGSLRLSCAASGRTFYLYAMGWYRHAPGKERELVAAISWSDDTTYYADSVKGRFTISRDNAKNTVYLQRNSLKPEDTAVYYCAAEQEQVALYDYWGQGTQVTVSS | high polyreactivity
32 | QVQLVESGGVLVQAGGSLRLSCAASGRTIWYYAMGWYRQAPGKERELVASITRSGGTTYADSVKGRFTISRDNAKNTVYLQMNSLKPEDTAVYYCAATRPRIPVYQNNYGYWGQGTQLTVSS | high polyreactivity
33 | QVQLVESGGVLVQAGGSLRLSCAASGRTLGTYAMGWYRQAPGKERELVAAITHSGGTTYYADSVKGRFTISRDNAKNTVYLQMNSLKPEDTAVYYCAADARFRTVSPMDYWGQGTQVTVSS | low polyreactivity
34 | QVQLVESGGVLVQAGGSLRLSCAASGRTYGTYAMGWYRQAPGKERELVAGINGSGGSTYYADSVKGRFTISRDNAKNTVFLQMNSLKPEDTAVYYCYKYGRRPYGLRGYWGEGTQVTVSS | high polyreactivity
35 | QVQLVESGGVLVQAGGSLRLSCAASGSIFASNAMGWYRQAPGKEREFVAAISWSGTRTYYADSVKGRFTISRDTAKNTVYLQMNSLKPEDTAVYYCAALTVLRNDYWGLGTQVTVSS | low polyreactivity
36 | QVQLVESGGVLVQAGGSLRLSCAASGSIFDHYAMGWYRQAPGKERELVAAITYSDGSTYYADSVKGRFTISRDNAKNTVFLQMNSLKPEDTAVFYCAAYPRGSQRYNYWGQGTHVTVSS | high polyreactivity
37 | QVQLVESGGVLVQAGGSLRLSCAASGSIFEVNSMGWYRQAPGKERELVDTITYSGGSTYYADSVKGRFTLSRDNAKNNVYLQMNSLKPEDTAVYYCATDYVDWELYIYDYWGQGTQVTVSS | low polyreactivity
38 | QVQLVESGGVLVQAGGSLRLSCAASGSIFGTYAMGWYRRAPGKERELVAAITSDGVDTYYADSVKGRFTISRDNAKITVYLQMNSLKPEDTAVYYGAAEYEGLYGYGYWGQGTQVTVSS | high polyreactivity
39 | QVQLVESGGVLVQAGGSLRLSCAASGSIFSYNVMGWYRQAQGKEREFVAAITRSGGSTYYADSVKGRFTISRDNAKNTVYLQMNSLKPEDTAVYYCATAYYYTPFREYYYWGQGTQVTVSS | low polyreactivity
40 | QVQLVESGGVLVQAGGSLRLSCAASGSIFYVNTMGWYRQAPGKDRELVADISSGDSTYYADSVKGRFTISRDNAKNTVYLQMNSLKPEDTAVFYCNADVYSWVSGKEGDYWGQGTQVTVSS | low polyreactivity
41 | QVQLVESGGVLVQAGGSLRLSCAASGSILSNYAMGWYRQAPGKERELVASISSTAGSTYYADSVKGRFTISRDNCKNTVYLQMNSLKPEDTAVYYSIKVFGGGTYDFWGQGTQVTVSS | low polyreactivity
42 | QVQLVESGGVLVQAGGSLRLSCAASGSTFEYNVMGWYRPAPGKERELVAAITTGASTNYADSVKGRFTISRDNAKNTVYLQMNCLKPEDTAVYYCAARYWRVRHGSVPAYSGYDYWGLGTQVTVSS | low polyreactivity
43 | QVQLVESGGVLVQAGGSLRLSCAASGSTFGPNAMGWYRQAPGKERELVAAIRSNGGRTYYADSVKGRFTISRDNAKNTVYLQMNSLKPEDTAVYYCAAPHYPYDTPYGYWGQGTQVTVSS | low polyreactivity
